Measured values: US20110294873A1, “Gene Transfer Vectors Comprising At Least One Isolated DNA Molecule Having Insulator Or Boundary Properties And Methods To Identify The Same” (UNIVERSITÉ DE LAUSANNE, priority 2008, published 2011)

Columns and labels:
[1] = test system: HeLa cells; assay: Neomycin (G418) resistant colony insulator assay in HeLa cells; assay type: cell-based, human; conditions: element between enhancer and minimal promoter/neo, 2 weeks G418
Description: For experimental convenience, Applicants wanted to validate the cHS4 enhancer-blocking activity in HeLa cells (top bars). Using the same approach, the pJC5-4 deriving constructs were stably transfected in HeLa cells. The cHS4 was able to insulate the reporter gene from the LCR activation of nearly 15-fold.
The capacity of the cHS4 to block the Fr-MLV LTR strong enhancer was assessed using the same system in HeLa cells. Additional plasmids were constructed, replacing the β-globin LCR element by the Fr-MLV LTR in both orientations.
FIG. 20. Assessment of the insulator activity of multimerized CTF binding sites using the commonly-used neomycin-resistance insulator assay. The number of neomycin resistant colonies were determined as in FIGS. 15 and 16 after 2 weeks of G418 selection of HeLa cells transfected using the indicated reporter constructs. […]
(A) Schematic representation of the vectors used for the insulator assay based on the quantitation of neomycin-resistant colonies. […] The level of expression of that reporter gene is assessed by the number of neomycin-resistant colonies obtained after stable transfections. […]
(C) Percentage of neomycin-resistant colonies counted 2 to 3 weeks after transfection and G418 selection of HeLa (dashed bars) and K562 (black bars) cells. […]

[2] = test system: Fr-MLV LTR enhancer acting on GFP gene in HeLa cells; assay: First generation two-reporter (DsRed/GFP) enhancer-blocking assay, transient transfection, FACS; assay type: cell-based, human; conditions: element interposed between enhancer and GFP gene
From the text: The strategy elaborated by Applicants to address the potential enhancer-blocking activity of genetic elements consists in setting up a two-reporter genes-assay whereby the potency of suspected insulators can be quantified. A series of plasmids were thus designed, containing a combination of two reporter genes: a DsRed gene, used as the assay system internal control, under the control of a Fr-MLV LTR enhancer/promoter, and a GFP gene under the control of a minimal CMV promoter, but also subjected to the influence of the LTR enhancer. […] By analyzing the expression of both reporter genes by flow cytometry, this system provides a standardized quantitative procedure to assess potential insulator elements. […]
The constructs described in FIG. 14 were used to transfect transiently HeLa cells. The expression of both DsRed and GFP was analyzed by FACS. […]
HeLa cells were transfected with pAG1-3-HS4 (left panel) or pAG1-3-2HS4 (right panel) constructs (respectively constructs #4 and #5 on FIG. 30), and 100′000 cells were analyzed 48 hours later. […]
HeLa cell populations transiently transfected with constructs containing either no cHS4 (noins) or a copy at the GFP extremity (HS4) or two copies flanking the GFP gene (2HS4) were analyzed by FACS. Percentages of GFP-expressing cells (left panel) and GFP mean fluorescence in RLU (right panel) are plotted for each case.

B1: Ins2: 7 direct repeats of the CTF/NF1 binding site from adenovirus type II origin of replication, 5 bp spacing (nucleic acid)
DNA: ATCGATAAGCTTGCATTGGCAACGTGCCATAAGCATTGGCAACGTGCCATAAGCATTGGCAACGTGCCATAAGCATTGGCAACGTGCCATAAGCATTGGCAACGTGCCATAAGCATTGGCAACGTGCCATAAGCATTGGCAACGTGCCATAAGCGGGGGGATCC
modifications: 7xCTF/NF1 from adenovirus type II
[1]
  occurrence of colonies of neomycin-resistant cells: significantly reduced the occurrence of colonies of neomycin-resistant cells
[2]
  decrease of mean fluorescence of GFP-positive cells: approximately three-fold
